Experimental findings from publication PMC8882007, “Syndapin-2 mediated transcytosis of amyloid-β across the blood–brain barrier” (Brain Communications, 2022) are described below.

Where only a bound is given, the exact number is not on record here.

The labels stand for the following.
B1: apolipoprotein E (ligand, mouse (endogenous in bEnd3), UniProt P08226 19-311, looked up)
chain: EGEPEVTDQLEWQSNQPWEQALNRFWDYLRWVQTLSDQVQEELQSSQVTQELTALMEDTMTEVKAYKKELEEQLGPVAEETRARLGKEVQAAQARLGADMEDLRNRLGQYRNEVHTMLGQSTEEIRARLSTHLRKMRKRLMRDAEDLQKRLAVYKAGAREGAERGVSAIRERLGPLVEQGRQRTANLGAGAAQPLRDRAQAFGDRIRGRLEEVGNQARDRLEEVREHMEEVRSKMEEQTQQIRLQAEIFQARLKGWFEPIVEDMHRQWANLMEKIQASVATNPIITPVAQENQ
notes: apolipoprotein E (ApoE), detected in mouse brain endothelial cells (bEnd3); also called ApoE; source: endogenous, bEnd3 mouse brain endothelial cells (fixed, permeabilized)
B2: syndapin-2 (natural protein, mouse (endogenous in bEnd3), UniProt Q9WVE8 1-486, looked up)
chain: MSVTYDDSVGVEVSSDSFWEVGNYKRTVKRIDDGHRLCGDLMNCLHERARIEKAYAQQLTEWARRWRQLVEKGPQYGTVEKAWIAVMSEAERVSELHLEVKASLMNEDFEKIKNWQKEAFHKQMMGGFKETKEAEDGFRKAQKPWAKKLKEVEAAKKAHHTACKEEKLAISREANSKADPSLNPEQLKKLQDKIEKCKQDVLKTKDKYEKSLKELDQTTPQYMENMEQVFEQCQQFEEKRLRFFREVLLEVQKHLDLSNVASYKTIYRELEQSIKAADAVEDLRWFRANHGPGMAMNWPQFEEWSADLNRTLSRREKKKAVDGVTLTGINQTGDQSGQNKPGSNLSVPSNPAQSTQLQSSYNPFEDEDDTGSSISEKEDIKAKNVSSYEKTQTYPTDWSDDESNNPFSSTDANGDSNPFDEDTTSGTEVRVRALYDYEGQEHDELSFKAGDELTKIEDEDEQGWCKGRLDSGQVGLYPANYVEAIQ
notes: syndapin-2 (PACSIN-2), F-BAR protein, endogenous in mouse brain endothelial cells (bEnd3); also called PACSIN-2; Syn-2; source: endogenous, bEnd3 mouse brain endothelial cells (fixed, permeabilized)

Assay in all cases: proximity ligation; Duolink PLA between two endogenous proteins in polarized bEnd3 monolayers, fixed in 4% PFA and permeabilized with 0.1% Triton X-100; two primary antibodies overnight at 4°C; PLA signal normalized by the number of nuclei; also in shRNA control (scramble) and syndapin-2 knockdown cells, and after FAM-Aβ (1–40) or Aβ monomers, oligomers or fibrils for 15 min
Settings in all cases: partners not purified

Experiment [1] has as its target T1, low-density lipoprotein receptor-related protein 1 (mouse (endogenous in bEnd3), UniProt Q91ZX7 20-4545).
T1 construct: low-density lipoprotein receptor-related protein 1 (LRP1), endogenous in mouse brain endothelial cells (bEnd3); also called LRP1; source: endogenous, bEnd3 mouse brain endothelial cells (fixed, permeabilized)

Another experiment addresses T2, heavy chain of clathrin (mouse (endogenous in bEnd3), UniProt Q68FD5 1-1675).
T2 construct: clathrin heavy chain, endogenous in mouse brain endothelial cells (bEnd3); source: endogenous, bEnd3 mouse brain endothelial cells (fixed, permeabilized)

The next experiment has as its target T3, EEA-1 (mouse (endogenous in bEnd3), UniProt Q8BL66 1-1411).
T3 construct: EEA-1 (early endosome marker), endogenous in mouse brain endothelial cells (bEnd3); also called early endosomes (EEA-1); source: endogenous, bEnd3 mouse brain endothelial cells (fixed, permeabilized)
T3 sequence (looked up): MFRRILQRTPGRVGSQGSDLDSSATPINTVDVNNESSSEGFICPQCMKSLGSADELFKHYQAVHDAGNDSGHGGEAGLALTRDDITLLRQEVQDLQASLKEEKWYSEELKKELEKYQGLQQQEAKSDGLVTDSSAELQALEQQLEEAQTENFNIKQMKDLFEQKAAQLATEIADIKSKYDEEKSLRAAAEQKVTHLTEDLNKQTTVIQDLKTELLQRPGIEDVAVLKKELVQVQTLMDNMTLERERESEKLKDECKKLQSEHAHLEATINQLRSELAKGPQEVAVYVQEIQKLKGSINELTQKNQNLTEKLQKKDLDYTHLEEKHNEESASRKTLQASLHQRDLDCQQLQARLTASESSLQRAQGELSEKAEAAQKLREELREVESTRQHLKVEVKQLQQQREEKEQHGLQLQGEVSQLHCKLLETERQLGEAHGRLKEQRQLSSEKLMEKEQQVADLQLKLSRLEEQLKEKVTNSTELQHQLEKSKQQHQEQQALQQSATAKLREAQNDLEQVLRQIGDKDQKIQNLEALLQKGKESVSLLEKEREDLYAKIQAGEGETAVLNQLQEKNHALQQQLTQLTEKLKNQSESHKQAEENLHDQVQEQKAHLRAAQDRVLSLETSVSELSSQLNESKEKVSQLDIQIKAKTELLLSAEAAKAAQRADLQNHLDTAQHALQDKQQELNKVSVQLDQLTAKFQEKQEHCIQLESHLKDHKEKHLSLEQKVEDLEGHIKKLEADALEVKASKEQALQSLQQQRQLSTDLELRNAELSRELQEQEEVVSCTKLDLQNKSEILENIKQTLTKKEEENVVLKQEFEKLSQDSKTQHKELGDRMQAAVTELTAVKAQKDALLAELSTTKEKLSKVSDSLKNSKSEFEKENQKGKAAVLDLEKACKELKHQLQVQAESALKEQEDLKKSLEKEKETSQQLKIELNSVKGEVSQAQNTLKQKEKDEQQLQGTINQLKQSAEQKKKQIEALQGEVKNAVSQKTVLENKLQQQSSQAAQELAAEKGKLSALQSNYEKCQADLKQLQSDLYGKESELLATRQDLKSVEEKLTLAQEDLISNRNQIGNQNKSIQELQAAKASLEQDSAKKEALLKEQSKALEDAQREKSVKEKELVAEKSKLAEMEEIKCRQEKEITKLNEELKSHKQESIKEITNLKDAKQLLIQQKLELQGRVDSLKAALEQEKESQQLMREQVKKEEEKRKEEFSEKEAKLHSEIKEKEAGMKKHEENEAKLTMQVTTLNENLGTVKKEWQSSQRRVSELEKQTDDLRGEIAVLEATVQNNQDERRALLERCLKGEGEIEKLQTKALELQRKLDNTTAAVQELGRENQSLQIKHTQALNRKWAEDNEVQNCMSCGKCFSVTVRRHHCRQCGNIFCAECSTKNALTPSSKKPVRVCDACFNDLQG

The experiment “apolipoprotein E” deals with B1.
Another experiment concerns the target β-actin (mouse (endogenous in bEnd3), UniProt P60710 1-375).
The next experiment deals with T4, dynamin-2 (mouse (endogenous in bEnd3), UniProt P39054 1-870).
T4 construct: dynamin-2, endogenous in mouse brain endothelial cells (bEnd3); source: endogenous, bEnd3 mouse brain endothelial cells (fixed, permeabilized)
T4 sequence (looked up): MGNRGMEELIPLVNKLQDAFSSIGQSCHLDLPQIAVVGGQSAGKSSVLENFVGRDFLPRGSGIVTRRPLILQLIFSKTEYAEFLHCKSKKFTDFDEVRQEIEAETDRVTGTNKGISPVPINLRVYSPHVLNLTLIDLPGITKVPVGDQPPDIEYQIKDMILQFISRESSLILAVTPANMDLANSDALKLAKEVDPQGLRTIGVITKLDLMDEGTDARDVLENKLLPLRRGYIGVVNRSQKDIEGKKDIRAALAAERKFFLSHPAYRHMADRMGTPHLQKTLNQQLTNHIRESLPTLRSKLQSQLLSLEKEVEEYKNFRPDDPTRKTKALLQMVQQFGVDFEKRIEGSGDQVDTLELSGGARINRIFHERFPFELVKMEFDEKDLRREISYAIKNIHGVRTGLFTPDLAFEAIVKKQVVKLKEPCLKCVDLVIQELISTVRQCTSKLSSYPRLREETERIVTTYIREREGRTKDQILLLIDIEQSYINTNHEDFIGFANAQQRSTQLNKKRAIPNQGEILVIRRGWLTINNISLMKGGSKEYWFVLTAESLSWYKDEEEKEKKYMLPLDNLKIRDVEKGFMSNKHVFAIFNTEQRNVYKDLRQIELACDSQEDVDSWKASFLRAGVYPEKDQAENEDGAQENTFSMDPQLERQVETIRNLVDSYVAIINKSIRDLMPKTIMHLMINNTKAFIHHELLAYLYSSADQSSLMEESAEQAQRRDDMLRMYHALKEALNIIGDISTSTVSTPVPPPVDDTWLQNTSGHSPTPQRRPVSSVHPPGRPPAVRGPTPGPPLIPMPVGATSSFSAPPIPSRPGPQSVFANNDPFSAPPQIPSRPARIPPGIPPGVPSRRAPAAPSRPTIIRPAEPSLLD

T1 sequence (Q91ZX7 20-4545): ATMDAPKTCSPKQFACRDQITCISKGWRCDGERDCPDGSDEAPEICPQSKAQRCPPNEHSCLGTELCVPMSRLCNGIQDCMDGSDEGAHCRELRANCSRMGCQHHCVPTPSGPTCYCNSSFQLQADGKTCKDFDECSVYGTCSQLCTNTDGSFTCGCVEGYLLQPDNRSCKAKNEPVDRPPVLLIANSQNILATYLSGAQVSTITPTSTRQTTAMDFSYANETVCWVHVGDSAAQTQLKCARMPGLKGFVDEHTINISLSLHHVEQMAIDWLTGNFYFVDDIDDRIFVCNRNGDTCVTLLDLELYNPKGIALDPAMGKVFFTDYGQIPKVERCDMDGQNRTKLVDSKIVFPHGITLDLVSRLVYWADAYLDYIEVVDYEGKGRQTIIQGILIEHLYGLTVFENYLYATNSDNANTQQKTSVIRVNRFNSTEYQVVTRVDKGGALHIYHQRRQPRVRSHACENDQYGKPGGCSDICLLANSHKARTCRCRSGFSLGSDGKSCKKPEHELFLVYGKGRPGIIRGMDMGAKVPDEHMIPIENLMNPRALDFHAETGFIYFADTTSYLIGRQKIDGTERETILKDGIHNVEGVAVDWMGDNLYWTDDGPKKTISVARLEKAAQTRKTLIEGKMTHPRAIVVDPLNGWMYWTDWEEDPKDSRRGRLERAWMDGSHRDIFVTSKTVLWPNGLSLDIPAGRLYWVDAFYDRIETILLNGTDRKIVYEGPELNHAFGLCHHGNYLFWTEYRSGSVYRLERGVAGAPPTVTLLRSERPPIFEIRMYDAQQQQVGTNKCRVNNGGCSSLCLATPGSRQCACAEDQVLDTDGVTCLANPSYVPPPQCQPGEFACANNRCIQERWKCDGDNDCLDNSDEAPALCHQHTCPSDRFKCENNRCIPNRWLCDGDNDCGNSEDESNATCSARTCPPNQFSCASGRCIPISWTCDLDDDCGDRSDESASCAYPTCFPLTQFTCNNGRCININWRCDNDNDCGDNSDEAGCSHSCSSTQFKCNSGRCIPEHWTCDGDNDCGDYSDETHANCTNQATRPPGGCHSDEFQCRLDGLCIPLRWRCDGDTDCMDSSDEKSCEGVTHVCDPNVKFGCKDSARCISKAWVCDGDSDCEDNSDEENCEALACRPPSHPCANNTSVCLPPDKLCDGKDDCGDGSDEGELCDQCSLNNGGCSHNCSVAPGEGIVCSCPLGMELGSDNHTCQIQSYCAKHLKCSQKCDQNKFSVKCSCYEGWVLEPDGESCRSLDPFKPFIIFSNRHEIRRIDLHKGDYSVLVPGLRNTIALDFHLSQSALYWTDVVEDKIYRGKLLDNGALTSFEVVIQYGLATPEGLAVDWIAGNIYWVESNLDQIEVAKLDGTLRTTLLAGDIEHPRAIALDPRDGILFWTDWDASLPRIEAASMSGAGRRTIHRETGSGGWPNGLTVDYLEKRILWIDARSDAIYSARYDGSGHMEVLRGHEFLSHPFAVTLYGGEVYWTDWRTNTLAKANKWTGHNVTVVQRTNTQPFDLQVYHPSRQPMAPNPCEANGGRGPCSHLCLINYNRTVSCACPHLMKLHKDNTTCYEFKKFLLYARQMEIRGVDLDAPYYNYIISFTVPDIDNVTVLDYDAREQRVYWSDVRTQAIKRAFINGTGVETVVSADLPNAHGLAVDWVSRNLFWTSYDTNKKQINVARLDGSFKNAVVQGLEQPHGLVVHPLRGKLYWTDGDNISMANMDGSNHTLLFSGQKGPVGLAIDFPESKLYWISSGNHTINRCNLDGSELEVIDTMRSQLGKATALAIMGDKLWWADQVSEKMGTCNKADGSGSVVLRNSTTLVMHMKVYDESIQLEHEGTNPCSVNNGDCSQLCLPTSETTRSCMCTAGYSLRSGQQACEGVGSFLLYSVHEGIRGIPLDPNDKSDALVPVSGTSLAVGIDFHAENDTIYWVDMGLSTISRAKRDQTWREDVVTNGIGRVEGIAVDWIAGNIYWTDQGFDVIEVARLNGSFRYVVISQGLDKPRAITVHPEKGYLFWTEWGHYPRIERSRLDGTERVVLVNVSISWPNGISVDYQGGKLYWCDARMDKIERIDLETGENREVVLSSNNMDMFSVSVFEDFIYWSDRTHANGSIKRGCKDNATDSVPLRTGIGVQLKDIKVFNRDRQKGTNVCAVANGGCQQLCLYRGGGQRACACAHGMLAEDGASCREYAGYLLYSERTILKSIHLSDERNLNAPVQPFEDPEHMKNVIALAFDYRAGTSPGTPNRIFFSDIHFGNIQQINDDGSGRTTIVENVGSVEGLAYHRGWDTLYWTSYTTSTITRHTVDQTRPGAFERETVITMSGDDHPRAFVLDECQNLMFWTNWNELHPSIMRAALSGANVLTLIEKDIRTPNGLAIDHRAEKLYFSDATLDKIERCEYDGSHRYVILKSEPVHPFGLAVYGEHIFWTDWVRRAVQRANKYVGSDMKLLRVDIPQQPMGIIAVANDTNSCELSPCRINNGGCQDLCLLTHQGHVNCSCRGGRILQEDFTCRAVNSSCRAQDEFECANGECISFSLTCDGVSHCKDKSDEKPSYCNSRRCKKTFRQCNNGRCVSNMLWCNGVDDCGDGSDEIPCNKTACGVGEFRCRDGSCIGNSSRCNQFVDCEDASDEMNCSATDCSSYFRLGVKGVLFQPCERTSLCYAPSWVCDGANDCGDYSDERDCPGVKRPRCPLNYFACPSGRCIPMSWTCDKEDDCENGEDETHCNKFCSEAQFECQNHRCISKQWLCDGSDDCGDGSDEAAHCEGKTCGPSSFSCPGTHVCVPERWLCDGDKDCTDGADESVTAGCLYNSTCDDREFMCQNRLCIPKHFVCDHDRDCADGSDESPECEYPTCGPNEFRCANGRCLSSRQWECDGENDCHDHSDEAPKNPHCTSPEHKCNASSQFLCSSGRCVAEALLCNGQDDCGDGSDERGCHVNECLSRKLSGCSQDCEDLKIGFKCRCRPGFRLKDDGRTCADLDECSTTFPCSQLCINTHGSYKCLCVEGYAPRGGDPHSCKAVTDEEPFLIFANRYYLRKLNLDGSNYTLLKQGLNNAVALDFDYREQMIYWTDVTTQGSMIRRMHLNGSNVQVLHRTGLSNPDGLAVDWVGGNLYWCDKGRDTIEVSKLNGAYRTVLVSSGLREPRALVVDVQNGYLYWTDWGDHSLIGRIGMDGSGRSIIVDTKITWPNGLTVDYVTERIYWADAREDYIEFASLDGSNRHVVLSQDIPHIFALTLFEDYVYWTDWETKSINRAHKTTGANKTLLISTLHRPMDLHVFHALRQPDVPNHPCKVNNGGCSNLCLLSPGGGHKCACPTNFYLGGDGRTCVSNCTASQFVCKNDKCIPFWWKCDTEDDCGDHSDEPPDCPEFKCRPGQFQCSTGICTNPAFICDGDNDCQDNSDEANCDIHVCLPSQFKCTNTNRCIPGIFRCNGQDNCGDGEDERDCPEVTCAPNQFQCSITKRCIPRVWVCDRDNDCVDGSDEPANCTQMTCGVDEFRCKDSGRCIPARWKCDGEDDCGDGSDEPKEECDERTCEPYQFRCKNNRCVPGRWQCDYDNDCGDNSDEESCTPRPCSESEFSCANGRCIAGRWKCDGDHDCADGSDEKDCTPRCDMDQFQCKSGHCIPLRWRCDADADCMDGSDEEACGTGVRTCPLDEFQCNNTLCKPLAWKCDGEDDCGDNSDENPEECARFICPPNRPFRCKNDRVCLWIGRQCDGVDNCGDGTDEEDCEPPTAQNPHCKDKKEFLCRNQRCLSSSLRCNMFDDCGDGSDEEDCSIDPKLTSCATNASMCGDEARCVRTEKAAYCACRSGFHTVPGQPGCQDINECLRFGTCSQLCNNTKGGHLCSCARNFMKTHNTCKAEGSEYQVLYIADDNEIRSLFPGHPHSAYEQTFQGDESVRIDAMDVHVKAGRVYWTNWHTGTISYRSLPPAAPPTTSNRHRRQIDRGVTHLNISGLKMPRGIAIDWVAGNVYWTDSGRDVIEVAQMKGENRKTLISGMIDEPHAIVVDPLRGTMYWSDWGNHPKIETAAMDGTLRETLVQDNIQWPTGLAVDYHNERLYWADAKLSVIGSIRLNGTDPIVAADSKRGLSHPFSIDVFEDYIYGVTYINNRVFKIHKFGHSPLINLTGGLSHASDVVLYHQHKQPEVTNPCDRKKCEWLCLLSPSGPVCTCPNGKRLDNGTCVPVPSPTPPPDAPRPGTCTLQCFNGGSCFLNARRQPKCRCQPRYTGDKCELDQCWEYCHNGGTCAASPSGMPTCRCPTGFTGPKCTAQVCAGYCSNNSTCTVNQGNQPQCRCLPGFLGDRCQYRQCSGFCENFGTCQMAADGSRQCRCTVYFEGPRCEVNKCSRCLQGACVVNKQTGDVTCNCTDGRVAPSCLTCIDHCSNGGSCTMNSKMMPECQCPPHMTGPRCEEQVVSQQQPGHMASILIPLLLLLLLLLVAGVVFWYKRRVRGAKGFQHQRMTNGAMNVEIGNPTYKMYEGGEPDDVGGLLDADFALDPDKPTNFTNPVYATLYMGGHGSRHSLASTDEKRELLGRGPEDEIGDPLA

With B1, the “PLA dots per cell” value in experiment [1] is ~80 dots per cell.
For the molecule B2, the “PLA dots per cell” value in the experiment with heavy chain of clathrin was ~150 dots per cell; in the experiment with EEA-1, < 20 dots per cell; with apolipoprotein E, ~250 dots per cell; with β-actin, ~150 dots per cell; in experiment [1], ~250 dots per cell; with dynamin-2, ~150 dots per cell.
